Measured values: patent publication US20260234276A1 (DOMAIN THERAPEUTICS, published 2026)
“And” between values parts separate entries of the source, which are not always exact repeats. Equal values may be shown once.

Columns and labels:
human CCR8 [1] = target: T1, human CCR8 (human, UniProt P51685 1-355); assay: cell-based or functional assay
human CCR8 [2] = target: T1, human CCR8; assay: cell-based or functional assay; remark: listed apart in the source
pm4 [3] = target: T2, pm4 (human, sulfated tyrosine(s) among Tyr 15, Tyr 16, Tyr 17; marked only by underlining, lost in the text); assay: ELISA on coated peptide
T2 sequence (peptide, as listed by the source): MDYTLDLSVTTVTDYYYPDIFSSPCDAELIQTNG
Description: (§1) The specific binding properties of antibodies were evaluated by ELISA with coated CCR8 related peptides (500 ng/mL) in carbonate/bicarbonate buffer. Different peptides were used as described in Table 1 (see Example 1). Each anti-CCR8 mAb was tested at 1 μg/mL then diluted at 1/10. After an incubation at room temperature during 90 min, unbound mAbs were removed by washings. […] After washings, 3,3′,5,5′-tetramethylbenzidine (TMB) (Interchim, Montlugon, France) was added for 15 min. Then the optical density (OD) was determined by using a multiplate reader (Tecan, Lyon, France) and correlated with mAb reactivity on the panel of coated peptides.

pm1 [4] = target: T3, pm1 (human, sulfated tyrosine(s) among Tyr 15, Tyr 16, Tyr 17; marked only by underlining, lost in the text); assay: ELISA on coated peptide
T3 sequence (peptide, as listed by the source): as above
Description: as §1

pm2 [5] = target: T4, pm2 (human, sulfated tyrosine(s) among Tyr 15, Tyr 16, Tyr 17; marked only by underlining, lost in the text); assay: ELISA on coated peptide
T4 sequence (peptide, as listed by the source): as above
Description: as §1

pm5 = pm5 (human, sulfated tyrosines at Y15 and Y17); assay: ELISA on coated peptide [cont.]
Chain of pm5 (human, sulfated tyrosines at Y15 and Y17) (peptide, as listed by the source): as above
Procedure, shortened: (§2)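 Binding is scored by optical density: plates carry 500 ng/mL peptide in carbonate/bicarbonate buffer, receive mAb at 1 μg/mL or diluted 1/10 for 90 min at room temperature, then TMB for 15 min.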

pm6 = pm6 (human, sulfated tyrosines at Y16 and Y17); assay: ELISA on coated peptide [cont.]
Chain of pm6 (human, sulfated tyrosines at Y16 and Y17) (peptide, as listed by the source): as above
Procedure, shortened: as §2

pm8 = pm8 (human, sulfated tyrosines at Y15, Y16 and Y17); assay: ELISA on coated peptide [cont.]
Chain of pm8 (human, sulfated tyrosines at Y15, Y16 and Y17) (peptide, as listed by the source): as above
Procedure, shortened: as §2

pm3 = pm3 (human, sulfated tyrosine at Y17); assay: ELISA on coated peptide [cont.]
Chain of pm3 (human, sulfated tyrosine at Y17) (peptide, as listed by the source): as above
Procedure, shortened: as §2

human CCR8 [6] = target: T1, human CCR8; assay: flow cytometry, human activated T cells
Description: (§3) Briefly, 1·10⁵ cells per well in a 96 well plate were incubated with a dilution of unconjugated anti-CCR8 mAb at 10 μg/mL then diluted at 1/3.33, 4 dilution points (during 30 min at 4° C.). […] To determine EC50 value, 8 concentrations of anti-CCR8 mAb were tested. Unbound antibodies were washed away with PBS (Invitrogen by Thermofisher Scientific, Illkirch-Graffenstaden, France) supplemented by 2% Fetal Bovine Serum (Invitrogen by Thermofisher Scientific, Illkirch-Graffenstaden, France) and 2 mM EDTA (Invitrogen by Thermofisher Scientific, Illkirch-Graffenstaden, France). Subsequently, cells are centrifuged (5 min at 400 g) and bound antibody is detected with F(ab′)₂-Goat anti-Mouse IgG (H+L) Cross-Adsorbed Secondary Antibody, Alexa Fluor 488 (dilution 1/500) (Invitrogen by Thermofisher Scientific, Illkirch-Graffenstaden, France) or with F(ab′)₂-Goat anti-Human IgG Fc Secondary Antibody, PE (Invitrogen by Thermofisher Scientific, Illkirch-Graffenstaden, France) (dilution 1/1000) at 4° C. for 30 min. Detection reagent is washed away and cells are centrifuged (5 min at 400 g) and resuspended in 30 μL PBS. Bound detection antibody is quantified on a MacsQuant16 (Miltenyi, Gladbach, Germany) (B1 or B2 channel, 5000 events per acquisition).
(§4) Binding characteristics of anti-CCR8 mAb cellular reactivity was further investigated by testing their binding to activated T cells.

human CCR8 [7] = target: T1, human CCR8; assay: flow cytometry, HUT78 cells (native CCR8)
Description: The same staining protocol was applied on human CCR8 transfected CHO cell line versus wild type CHO cell line, cutaneous T cell lymphoma HUT78 cell line and human activated T cell model.
as §3

human CCR8 [8] = target: T1, human CCR8; assay: flow cytometry, human activated T cells pre-incubated with 200 nM hCCL1
Description: as §3, §4

human CCR8 [9] = target: T1, human CCR8; assay: competition HTRF on HEK-293 cells with hCCR8; blocked ligand CCL1-AF647 [cont.]
human CCR8 [10] = target: T1, human CCR8; assay: cell-based or functional assay; remark: listed apart in the source
human CCR8 [11] = target: T1, human CCR8; assay: cell-based or functional assay; remark: listed apart in the source
CCR8 SNAP-tag = CCR8 SNAP-tag (human, UniProt P51685 1-355, SNAP-tag labelled with Lumi4-Terbium); assay: cell-based or functional assay
pm4 [12] = target: T2, pm4; assay: ELISA on coated peptide [cont.]
Procedure, shortened: as §2

pwt1 = target: T5, pwt1 (human); assay: ELISA on coated peptide [cont.]
T5 construct: also called unmodified peptide
T5 sequence (peptide, as listed by the source): as above
Procedure, shortened: as §2

pm1 [13] = target: T3, pm1; assay: ELISA on coated peptide [cont.]
Procedure, shortened: as §2

pm2 [14] = target: T4, pm2; assay: ELISA on coated peptide [cont.]
Procedure, shortened: as §2

human CCR8 [15] = target: T1, human CCR8; assay: cell-based or functional assay; remark: listed apart in the source
human CCR8 [16] = target: T1, human CCR8; assay: flow cytometry, hCCR8 transfected CHOK1 cells
human CCR8 [17] = target: T1, human CCR8; assay: competition flow cytometry on hCCR8 transfected CHO cells; blocked ligand CCL1-AF647 [cont.]

Binder	IC50 (Gi2 BRET, pH 6.5) (human CCR8 [1])	IC50 (Gi2 BRET, pH 7.4) (human CCR8 [1])	hCCL1 (100 nM) residual response, Protocol #2, mAb 0.08 µg/mL (human CCR8 [2]) [%]	hCCL1 (100 nM) residual response, Protocol #2, mAb 0.4 µg/mL (human CCR8 [2]) [%]	hCCL1 (100 nM) residual response, Protocol #2, mAb 10 µg/mL (human CCR8 [2]) [%]	hCCL1 (100 nM) residual response, Protocol #3, mAb 0.05 µg/mL (human CCR8 [2]) [%]	hCCL1 (100 nM) residual response, Protocol #3, mAb 0.5 µg/mL (human CCR8 [2]) [%]	hCCL1 (100 nM) residual response, Protocol #3, mAb 5 µg/mL (human CCR8 [2]) [%]	binding result (pm4 [3])	binding result (pm1 [4])	binding result (pm2 [5])	binding result (pm5)	binding result (pm6)	binding result (pm8)	binding result (pm3)	% of labelled cells (human CCR8 [7]) [%]	IC50 (read off the curve) (human CCR8 [9]) [µg/mL]	Top plateau value (% of hCCL1 100 nM) with 5 µg/mL mAb, Protocol #3 (human CCR8 [15]) [%]	% positive cells (human CCR8 [16]) [%]	MFI fold change to isotype ctrl (human CCR8 [16]) [fold]	further results
3-77 (antibody, human IgG1, kappa, humanized, human IgG1 kappa) heavy: not shown light: DIVMTQAAPSLSVTPGESASISCTSSKSLLHSNGNTYLYWFLQKPGQSPQLLIYRMSNLASGVPDRFSGSGSGTAFTLKISRVEAEDVGVYYCMQHREYPFTFGSGTKLEIKRTVAAPSVFIFPPSDEQLKSGTASVVCLLNNFYPREAKVQWKVDNALQSGNSQESVTEQDSKDSTYSLSSTLTLSKADYEKHKVYACEVTHQGLSSPVTKSFNRGEC	0.018 µg/ml and 0.117 nM	0.029 µg/ml and 0.194 nM	62	38	30	94	63	39	binds	binds	binds	binds	binds	binds	binds	23	~0.1	–	–	–	% of labelled cells (human CCR8 [6]): 79%; % of labelled cells (human CCR8 [8]): 64%
3-78 (antibody, human IgG1, kappa, humanized) heavy: not shown light: DIVMTQAAPSLSVTPGESASISCTSSKSLLHSNGNTYLYWFLQKPGQSPQLLIYRMSNLASGVPDRFSGSGSGTAFTLKISRVEAEDVGVYYCMQHREYPFTFGSGTKLEIKRTVAAPSVFIFPPSDEQLKSGTASVVCLLNNFYPREAKVQWKVDNALQSGNSQESVTEQDSKDSTYSLSSTLTLSKADYEKHKVYACEVTHQGLSSPVTKSFNRGEC	0.025 µg/ml and 0.165 nM	0.035 µg/ml and 0.232 nM	74	54	40	89	63	51	binds	binds	binds	binds	binds	binds	binds	32	~0.1	–	–	–	ADCC % Max lysis, NK cells Donor 1 (human CCR8 [10]): 30%; ADCC % Max lysis, NK cells Donor 2 (human CCR8 [10]): 28%; ADCC EC50, NK cells Donor 1 (human CCR8 [10]): 6.43 pM; ADCC EC50, NK cells Donor 2 (human CCR8 [10]): 0.42 pM; ADCP % Max of phagocytosis, monocyte-derived macrophages Donor 9 (human CCR8 [11]): 9.65%
3-81 (antibody, human IgG1, kappa, V domains shown, humanized, human IgG1 kappa) VH: QVQLQQSGPEVVKPGASVKVSCKTSGYTFTEYTIHWVRQSHGQSLEWVGGINPNNGNTRYDQKFKGRVTITIDKSSSTAYMELRSLTSEDTAVYYCARVARSSGSGPYAMDYWGQGTTVTVSS VL: DVVMTQSPLSLPVTLGDQASISCRCSQSLLHTNGDTYLHWYLQRPGQSPRLLIYKVSNRFSGVPDRFSGSGSGTDFTLKISRVEAEDVGVYFCSQSTHVPYTFGGGTKVEIKR	0.018 µg/ml and 0.117 nM	0.034 µg/ml and 0.224 nM	77	66	41	73	52	37	–	–	–	binds	binds	binds	binds	88	–	–	–	–	% of internalization at 1 µg/ml mAb (HTRF) (CCR8 SNAP-tag): 44%; % of internalization at 10 µg/ml mAb (HTRF) (CCR8 SNAP-tag): 36%; binding result (pm4 [12]): binds; binding result (pwt1): binds; binding result (pm1 [13]): binds; binding result (pm2 [14]): binds; EC50 (human CCR8 [7]): 200 pM
3-46 (antibody, V domains shown) VH: EVQLVETGGGLVQPKGSLKLSCAASGFTFNTNAMNWVRQAPGKGLEWVARIRSKSNYYATYYADSVKDRFTISRDDSQSMLYLQMNNLKTEDTAMYYCVRGREMGNYYSMDYWGQGTSVTVSS VL: DIVMTQAAPSVPVTPGESVSISCRSSKSLLHSNGNTYLYWFLQRPGQSPQLLIYRMSNLASGVPDRFSGSGSGTAFTLRISRVEAEDVGVYYCMQHLEYPFTFGSGTKLEIK	0.019 µg/ml and 0.125 nM	0.011 µg/ml and 0.075 nM	60	35	21	69	39	38	–	–	–	binds	binds	binds	binds	–	–	149	64.7	5.63	IC50 (read off the curve) (human CCR8 [17]): ~0.3 µg/mL
3-43 (antibody, V domains shown) VH: QVQLQQPGAELVKPGASVKMSCKATGYTFTGYNMHWVKQTPGQGLEWIGAISPGKGDTSYNLKFKGKATLTTDKSSSTAYMQLSSLTSADSAVYYCARSGGTPFAYWGQGTLVTVSA VL: DVVMTQTPLSLPVSLGDQASISCRSSQSLVHSNGDTYLYWYLQKPGQSPKLLIYKVSNRFSGVPDRFSGSGSGTDFTLKINRVEAEDLGVYFCSQSTHVPYTFGGGTKLEIK	0.678 µg/ml and 4.52 nM	3.43 µg/ml and 22.9 nM	–	–	–	102	98	84	–	–	–	binds	binds	binds	binds	–	–	2880	76.2	8.37	IC50 (read off the curve) (human CCR8 [17]): ~0.7 µg/mL
